For 39 variants, self-cleavage results are on record in the RNAGym collection of RNA variant scans (doi:10.7554/elife.80360).

B1: CPEB3 Ribozyme (parent)
chain: GGGGGCCACAGCAGAAGCGUUCACGUCGCGGCCCCUGUCAGAUUCUGGUGAAUCUGCGAAUUCUGCUGU

This data set covers variants of B1. Kind of data set: self-cleavage, relative activity (ratio to wild type); higher = more cleavage; co-transcriptional.
GGGGGCCACAGCAGAAGCGUUCACGUCGCGGCCCCUGUCAGAUUCUGGUGAAUCUGCGAACUCUCCUGU [U61C G65C]: the self-cleavage worked out at 0.339.

For GGGGGCCACAGCAGAAGCGUUCACGUCGCGGCCCCUGUCAGAUUCUGGUGAAUCUGCGAACUCUUCUGU [U61C G65U], the self-cleavage amounted to 0.292. On to GGGGGCCACAGCAGAAGCGUUCACGUCGCGGCCCCUGUCAGAUUCUGGUGAAUCUGCGAACUCUGCUAU [U61C G68A], for which the self-cleavage is 0.924. As to GGGGGCCACAGCAGAAGCGUUCACGUCGCGGCCCCUGUCAGAUUCUGGUGAAUCUGCGAACUCUGCUCU [U61C G68C], the self-cleavage came out at 0.978. The figure for GGGGGCCACAGCAGAAGCGUUCACGUCGCGGCCCCUGUCAGAUUCUGGUGAAUCUGCGAAGUGUGCUGU [U61G C63G] is 0.396. The figure for GGGGGCCACAGCAGAAGCGUUCACGUCGCGGCCCCUGUCAGAUUCUGGUGAAUCUGCGAAGUUUGCUGU [U61G C63U] is 0.57. To GGGGGCCACAGCAGAAGCGUUCACGUCGCGGCCCCUGUCAGAUUCUGGUGAAUCUGCGAAGUAUGCUGU [U61G C63A] belongs 0.673; to GGGGGCCACAGCAGAAGCGUUCACGUCGCGGCCCCUGUCAGAUUCUGGUGAAUCUGCGAACUCUGCUGU [U61C], 0.88. GGGGGCCACAGCAGAAGCGUUCACGUCGCGGCCCCUGUCAGAUUCUGGUGAAUCUGCGAAGUCUGCUGU [U61G]: the self-cleavage was 0.935. For GGGGGCCACAGCAGAAGCGUUCACGUCGCGGCCCCUGUCAGAUUCUGGUGAAUCUGCGAAGUCUGAUGU [U61G C66A], the self-cleavage worked out at 0.495.

Consider GGGGGCCACAGCAGAAGCGUUCACGUCGCGGCCCCUGUCAGAUUCUGGUGAAUCUGCGAAGUCUGGUGU [U61G C66G], for which the self-cleavage was found to be 0.538. The figure for GGGGGCCACAGCAGAAGCGUUCACGUCGCGGCCCCUGUCAGAUUCUGGUGAAUCUGCGAAAUCUUCUGU [U61A G65U] is 0.459.

For the variant GGGGGCCACAGCAGAAGCGUUCACGUCGCGGCCCCUGUCAGAUUCUGGUGAAUCUGCGAAAUCUACUGU [U61A G65A], the self-cleavage came to 0.519. In the case of GGGGGCCACAGCAGAAGCGUUCACGUCGCGGCCCCUGUCAGAUUCUGGUGAAUCUGCGAAAUCUCCUGU [U61A G65C], the self-cleavage was found to be 0.542.

With GGGGGCCACAGCAGAAGCGUUCACGUCGCGGCCCCUGUCAGAUUCUGGUGAAUCUGCGAACUCAGCUGU [U61C U64A], the self-cleavage was 0.322. The figure for GGGGGCCACAGCAGAAGCGUUCACGUCGCGGCCCCUGUCAGAUUCUGGUGAAUCUGCGAACUCCGCUGU [U61C U64C] is 0.31.

Consider GGGGGCCACAGCAGAAGCGUUCACGUCGCGGCCCCUGUCAGAUUCUGGUGAAUCUGCGAACUCGGCUGU [U61C U64G], for which the self-cleavage amounted to 0.474. As to GGGGGCCACAGCAGAAGCGUUCACGUCGCGGCCCCUGUCAGAUUCUGGUGAAUCUGCGAAAUCUGCUCU [U61A G68C], the self-cleavage came out at 0.947.

On to GGGGGCCACAGCAGAAGCGUUCACGUCGCGGCCCCUGUCAGAUUCUGGUGAAUCUGCGAAAUCUGCUUU [U61A G68U], for which the self-cleavage is 0.937. To GGGGGCCACAGCAGAAGCGUUCACGUCGCGGCCCCUGUCAGAUUCUGGUGAAUCUGCGAAACCUGCUGU [U61A U62C] belongs 0.829. To GGGGGCCACAGCAGAAGCGUUCACGUCGCGGCCCCUGUCAGAUUCUGGUGAAUCUGCGAAAGCUGCUGU [U61A U62G] belongs 0.646. Consider GGGGGCCACAGCAGAAGCGUUCACGUCGCGGCCCCUGUCAGAUUCUGGUGAAUCUGCGAACUAUGCUGU [U61C C63A], for which the self-cleavage is 0.651.

For GGGGGCCACAGCAGAAGCGUUCACGUCGCGGCCCCUGUCAGAUUCUGGUGAAUCUGCGAACUUUGCUGU [U61C C63U], the self-cleavage turned out to be 0.425. For the variant GGGGGCCACAGCAGAAGCGUUCACGUCGCGGCCCCUGUCAGAUUCUGGUGAAUCUGCGAAAUCUGAUGU [U61A C66A], the self-cleavage was 0.386. To GGGGGCCACAGCAGAAGCGUUCACGUCGCGGCCCCUGUCAGAUUCUGGUGAAUCUGCGAAAUCUGGUGU [U61A C66G] belongs 0.44; to GGGGGCCACAGCAGAAGCGUUCACGUCGCGGCCCCUGUCAGAUUCUGGUGAAUCUGCGAACCCUGCUGU [U61C U62C], 0.479; to GGGGGCCACAGCAGAAGCGUUCACGUCGCGGCCCCUGUCAGAUUCUGGUGAAUCUGCGAAAUCUGCCGU [U61A U67C], 0.896. The figure for GGGGGCCACAGCAGAAGCGUUCACGUCGCGGCCCCUGUCAGAUUCUGGUGAAUCUGCGAAAUCUGCGGU [U61A U67G] is 0.958; for GGGGGCCACAGCAGAAGCGUUCACGUCGCGGCCCCUGUCAGAUUCUGGUGAAUCUGCGAAAUCUGCAGU [U61A U67A] it is 0.903; for GGGGGCCACAGCAGAAGCGUUCACGUCGCGGCCCCUGUCAGAUUCUGGUGAAUCUGCGAACUCUGCCGU [U61C U67C] it is 0.764. To GGGGGCCACAGCAGAAGCGUUCACGUCGCGGCCCCUGUCAGAUUCUGGUGAAUCUGCGAACUCUGCAGU [U61C U67A] belongs 0.741.

For the variant GGGGGCCACAGCAGAAGCGUUCACGUCGCGGCCCCUGUCAGAUUCUGGUGAAUCUGCGAAAUUUGCUGU [U61A C63U], the self-cleavage stood at 0.721. In the case of GGGGGCCACAGCAGAAGCGUUCACGUCGCGGCCCCUGUCAGAUUCUGGUGAAUCUGCGAACUCUGUUGU [U61C C66U], the self-cleavage was determined as 0.557.

For GGGGGCCACAGCAGAAGCGUUCACGUCGCGGCCCCUGUCAGAUUCUGGUGAAUCUGCGAACUCUGAUGU [U61C C66A], the self-cleavage stood at 0.375. On to GGGGGCCACAGCAGAAGCGUUCACGUCGCGGCCCCUGUCAGAUUCUGGUGAAUCUGCGAACUCUGGUGU [U61C C66G], for which the self-cleavage amounted to 0.396.

Take GGGGGCCACAGCAGAAGCGUUCACGUCGCGGCCCCUGUCAGAUUCUGGUGAAUCUGCGAAAUCAGCUGU [U61A U64A]: the self-cleavage came out at 0.54.

GGGGGCCACAGCAGAAGCGUUCACGUCGCGGCCCCUGUCAGAUUCUGGUGAAUCUGCGAACUCUGCUGG [U61C U69G]: the self-cleavage came out at 0.974.

With GGGGGCCACAGCAGAAGCGUUCACGUCGCGGCCCCUGUCAGAUUCUGGUGAAUCUGCGAACUCUGCUGC [U61C U69C], the self-cleavage was 1.02. The figure for GGGGGCCACAGCAGAAGCGUUCACGUCGCGGCCCCUGUCAGAUUCUGGUGAAUCUGCGAAAUCUGCUGA [U61A U69A] is 0.958.
